Experimental data taken from paper PMC10016618 (Nature cell biology, 2021).
Where a chain is given by its changes, count along the chain named. Like-named read-outs stand apart in the source and are kept apart here.

B1: Gli2-ZF-SNAP (domain or fragment, human, UniProt P10070 418-604, looked up)
chain: KEDLDRDDCKQEAEVVIYETNCHWEDCTKEYDTQEQLVHHINNEHIHGEKKEFVCRWQACTREQKPFKAQYMLVVHMRRHTGEKPHKCTFEGCSKAYSRLENLKTHLRSHTGEKPYVCEHEGCNKAFSNASDRAKHQNRTHSNEKPYICKIPGCTKRYTDPSSLRKHVKTVHGPDAHVTKKQRNDVH
modifications: Alexa-647 label (TIRFM assays)
B2: Kif7-DM-GFP (1-543aa) (domain or fragment, human, UniProt Q2M1P5 1-543, looked up)
chain: MGLEAQRLPGAEEAPVRVALRVRPLLPKELLHGHQSCLQVEPGLGRVTLGRDRHFGFHVVLAEDAGQEAVYQACVQPLLEAFFEGFNATVFAYGQTGSGKTYTMGEASVASLLEDEQGIVPRAMAEAFKLIDENDLLDCLVHVSYLEVYKEEFRDLLEVGTASRDIQLREDERGNVVLCGVKEVDVEGLDEVLSLLEMGNAARHTGATHLNHLSSRSHTVFTVTLEQRGRAPSRLPRPAPGQLLVSKFHFVDLAGSERVLKTGSTGERLKESIQINSSLLALGNVISALGDPQRRGSHIPYRDSKITRILKDSLGGNAKTVMIACVSPSSSDFDETLNTLNYASRAQNIRNRATVNWRPEAERPPEETASGARGPPRHRSETRIIHRGRRAPGPATASAAAAMRLGAECARYRACTDAAYSLLRELQAEPGLPGAAARKVRDWLCAVEGERSALSSASGPDSGIESASVEDQAAQGAGGRKEDEGAQQLLTLQNQVARLEEENRDFLAALEDAMEQYKLQSDRLREQQEEMVELRLRLELVRP

Assays:
Kif7-DM(E502A)-GFP = molecular target: T1, Kif7-DM(E502A)-GFP (human, UniProt Q2M1P5 1-543, E502A); test: TIRF microscopy, recruitment to immobilised microtubules
T1 sequence (looked up): B2 chain with E502A

Kif7-DM-GFP (1-543aa) = molecular target: B2; test: as above
Kif7-DM (1-543aa) = molecular target: T2, Kif7-DM (1-543aa) (human, UniProt Q2M1P5 1-543); test: BLI
T2 sequence (looked up): B2 chain

[1] = molecular target: GDP-taxol stabilized microtubules (bovine tubulin) (bovine) (UniProt Q6B856); test: co-sedimentation
[2] = molecular target: the molecule itself; test: single molecule fluorescence intensity and step-photobleaching analysis
[3] = molecular target: GDP-taxol stabilized microtubules (bovine tubulin) (bovine) (UniProt Q6B856); test: co-sedimentation; remark: listed apart in the source

Binder | binding result (Kif7-DM(E502A)-GFP) | fold enrichment of Gli2-ZF on microtubules over no kinesin control (Kif7-DM-GFP (1-543aa)) | Kd (Kif7-DM (1-543aa)) | Kd [1] | stoichiometry N [2] | Kd [3]
B1 | binds | ~9 fold | 99 ± 23 nM | – | – | –
B2 | – | – | – | 4230 nM | 2 | 540 nM
